Assay results published in patent US20020049159A1 (published 2002).

Molecular target: T1, OP-1 pro domain polypeptide (human, UniProt P18075 30-292)
T1 construct: Two pro domains (39 kDa each) stand in the soluble complex with one mature dimer; The complex was isolated from CHO conditioned medium; also called pro domain peptide
Assay: soluble complex purified from CHO conditioned medium without denaturants (Zn-IMAC, S-Sepharose, Sephacryl S-200HR gel filtration); elutes at an apparent 110 kDa
Procedure: In this example, OP-1 was expressed in mammalian (CHO, Chinese hamster ovary) cells as described in the art (see, for example, international application US90/05903 (WO 91/05802). The CHO cell conditioned media containing 0.5% FBS is initially purified using Immobilized Metal-Ion Affinity Chromatography (IMAC). The soluble OP-1 complex from conditioned media binds very selectively to the Zn-IMAC resin and a high concentration of imidazole (50 mM imidazole, pH 8.0) is required for the effective elution of the bound complex. The Zn-IMAC purified soluble OP-1 is next applied to an S-Sepharose action-exchange column equilibrated in 20 mM NaPO₄ (pH 7.0) with 50 mM NaCl. The protein then is applied to a Sephacryl S-200HR column equilibrated in TBS. Using substantially the same protocol, soluble morphogens can also be isolated from one or more body fluids, including milk, serum, cerebrospinal fluid or peritoneal fluid.

T1 sequence (P18075 30-292): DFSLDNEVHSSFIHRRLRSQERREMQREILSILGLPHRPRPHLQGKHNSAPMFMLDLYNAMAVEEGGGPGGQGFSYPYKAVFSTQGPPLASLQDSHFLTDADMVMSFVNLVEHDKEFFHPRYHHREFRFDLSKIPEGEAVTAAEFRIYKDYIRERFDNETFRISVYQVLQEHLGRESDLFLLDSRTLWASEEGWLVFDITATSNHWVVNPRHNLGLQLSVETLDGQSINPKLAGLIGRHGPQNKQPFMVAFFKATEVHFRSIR

binding result: binds
B1: mature human OP-1 dimer (recombinant, expressed in CHO cells) (ligand)
chain: STGSKQRSQNRSKTPKNQEALRMANVAENSSSDQRQACKKHELYVSFRDLGWQDWIIAPEGYAAYYCEGECAFPLNSYMNATNHAIVQTLVHFINPETVPKPCCAPTQLNAISVLYFDDSSNVILKKYRNMVVRACGCH
notes: Dimer of 35-36 kDa, glycosylated when made in CHO cells; also called hOP-1; human osteogenic protein 1
